According to patent publication US20190161551A1 (Regeneron, published 2019):

B1: H4H9780P (antibody, human IgG4 S228P, kappa, V domains shown)
VH: QVQLVESGGGVVQPGRSLRLSCAASGFSFSSFGMHWVRQAPGKGLEWVSVISYDGINTYYTDSVKGRFTISRDNSKNTLYLQMNGLRAEDTALYYCVQGSIGTVFEYWGQGTLVTVSS
VL: DIQMTQSPSSLSASVGDRVTITCRASQGISNYLAWYQQKPGKVPKLLIYAASTLQSGVPSRFGGSGSGTDFTLTISSLQPEDVATYYCQKYTSAPFTFGPGTKVDIKR
notes: Fully human anti-human TrkB agonist antibody, human IgG4 Fc; also called H4H9780P-L1
B2: M2aM14179N (antibody, mouse IgG2a, kappa, V domains shown)
VH: EVQLQQSGPELVKPGASVKISCKASGYTLTDYYMNWVKQSHGKSLEWIGDINPNNGGTSYNQKFKGKATLTVDKSSSTAYMELRSLTSEDSAVYYCARGAYYSNYFDYWGQGTTLTVSS
VL: DIVMSQSPSSLAVSAGEKVTMSCKSSQSLLNSRTRKNYLAWYQQKPGQSPKLLIYWASTRESGVPDRFTGSGSGTDFTLTISSVQAEDLAVYYCKQSYILFTFGSGTQLEIKR
notes: Anti-mouse TrkB antibody from hybridoma, mouse IgG2a Fc; also called surrogate anti-mouse TrkB antibody
B3: H4H9816P2 (antibody, human IgG4 S228P, kappa, V domains shown)
VH: EVQLVESGGGLVQPGGSLTLSCAASGFNFRDYEMIWVRQTPGKGLEWISYISNSGYTIYYADSVKGRFTISRDNARNSIYLQVNSLRAEDTAVYYCSRRTTMIRGIRAYYYYGLDVWGQGTTVTVSS
VL: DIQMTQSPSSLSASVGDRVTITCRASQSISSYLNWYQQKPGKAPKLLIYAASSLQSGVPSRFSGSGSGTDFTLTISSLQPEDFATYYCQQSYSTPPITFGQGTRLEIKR
notes: Fully human anti-human TrkB agonist antibody, human IgG4 Fc; also called H4H9816P-L1
B4: H4H9814P (antibody, human IgG4 S228P, kappa, V domains shown)
VH: EVQLVESGGGLVQPGGSLKLSCTASGFTFSGSVIHWVRQASGKGLEWIGRIRNKANSYATAYGASVTGRFTISRDDSKNTAYLQMNSLKTEDTAVYYCTFPGVVGRGGFDYWGQGTLVTVSS
VL: DIVMTQSPDSLAVSLGEGATINCMSSQSVLFSSNNKNYLAWYQQKPGQPPKLLFYWASTRESGVPDRFGGSGSGTDFSLTINSLQTEDVAVYYCLQYYSIPWTFGQGTKVEIKR
notes: Fully human anti-human TrkB agonist antibody, human IgG4 Fc; also called H4H9814P-L1
B5: H1M8037C (antibody, mouse IgG1, kappa, V domains shown)
VH: QVQLVQSGAEVKKPGASVKVSCKASGYTFTNYDIIWVRQAPGQGLEWMGYINPYNDGTKYNEKFKGRVTMTRDTSTSTVYMELSSLRSEDTAVYYCARLLKYRRFRYYAIDYWGQGTTVTVSS
VL: DIQMTQSPSSLSASVGDRVTITCRTSENVYSNLAWYQQKPGKAPKLLIYAASNLQSGVPSRFSGSGSGTDYTFTISSLQPEDIATYYCQHFWGSPFTFGQGTKLEIKR
notes: captured by anti-mFc in SPR; also called Comparator; comparator anti-TrkB monoclonal antibody
B6: M2aM14173N (antibody, mouse IgG2a, kappa, V domains shown)
VH: NVSLVESGGGSVKPGGSLQLSCAASGFTFSSSAMSWIRQTPEMRLEWVATISDRGSYTYYPDSVEGRFTISRDNAKNILYLQMSHLMSEDTAMYYCARGKGEKAYYTAFFAYWGQGSLVTVSA
VL: DIQMTQSPASLSASVGETVTITCRASENIYSYLAWYQQKPGKSPHLLVHNAETLAEGVPSRFSGSGSGPQFSLKINSLQPGDSGTYYCQHHYSSPWTFGGGTKLEIKR
notes: as for B2

Legend:
[1] = target: T1, human TrkB extracellular domain (aa Cys32-His430) expressed with the Fc portion of human IgG1 at the … (human); assay: competition ELISA, 500 pM hTrkB-hFc pre-mixed with mAb, plate-coated hBDNF
T1 construct: also called hTrkB-hFc; hTrkB.hFc
Experimental: Experiments were carried out using the following procedure. Human BDNF or NT-4 were separately coated at a concentration of 0.5 μg/mL or 2 μg/mL, respectively, in PBS on a 96-well microtiter plate overnight at 4° C. […] Blocking solution and dilution buffer contained 5% (w/v) solution of BSA in PBS for assay with BDNF coat, or 0.5% (w/v) solution of BSA in PBS for assay with NT-4 coat. On separate microtiter plates, a constant amount of 500 pM of hTrkB-hFc protein was added to serial dilutions of antibodies with final concentrations ranging from 1.7 pM to 100 nM, and solutions with no antibody present. (The constant concentration of hTrkB-hFc for antibody inhibition assays was selected from the approximate midway point within the linear portion of individual binding curves of hTrkB-hFc to plate-coated hBDNF or hNT-4). After one hour incubation at room temperature, antibody-protein complexes with 500 pM constant concentration of hTrkB-hFc protein were transferred to microtiter plates coated with hBDNF or hNT-4. After one hour incubation at room temperature, the wells were washed, and plate-bound hTrkB-hFc was detected with anti-human Fcγ fragment specific goat polyclonal antibodies conjugated with horseradish peroxidase (JacksonImmunoResearch). The plate was then developed using TMB substrate solution (BD Biosciences) according to manufacturer's recommendation and absorbance at 450 nm was measured on a Victor plate reader (PerkinElmer™).
The ability of anti-TrkB antibodies to block TrkB binding to BDNF or NT-4 was assessed using two competition sandwich ELISAs. Human TrkB-hFc binding to hBDNF or hNT-4 coated on 96-well microtiter plates, in the presence of serially diluted antibodies or no antibody controls, were detected with HRP-conjugated anti-human Fcγ fragment specific goat polyclonal antibodies. IC₅₀ values were calculated and used as the potency indicator of antibody blocking hTrkB-hFc binding to hBDNF or hNT-4. In addition, the maximum blockade of 500 pM hTrkB-hFc with each antibody at the highest tested concentration was calculated and compared.

[2] = target: T2, human TrkB extracellular domain expressed with a C-terminal mouse IgG2a Fc tag (human); assay: BLI Octet, captured hTrkB.mFc saturated with hNT-4, 300 nM mAb
T2 construct: also called hTrkB-mFc; hTrkB.mFc
Experimental: (§1) Blocking of anti-human TrkB or anti-mouse TrkB antibodies from binding to TrkB by BDNF or NT-4 was evaluated using a real-time bio-layer interferometry (BLI) based Octet HTX instrument. The entire study was performed in 10 mM HEPES pH 7.4, 300 mM NaCl, 3 mM EDTA, 1 mg/mL BSA, 0.02% NaN3 and 0.05% v/v Surfactant Tween-20 (HBS-EBT running buffer) at 25° C. All the samples were dispensed in a 384 tilted well plate and the plate was placed on the orbital shaker with the shake speed of 1000 rpm. hTrkB.mFc was captured on anti-mFc (AMC) Octet sensors while hTrkB.hFc or mTrkB.hFc were captured on anti-hFc (AHC) Octet sensors by dipping in wells containing 10 μg/mL of TrkB reagents for 2 minutes. hTrkB.mFc or hTrkB.hFc captured Octet biosensors were saturated by dipping in wells containing 20 nM of BDNF, hNT-4, or mNT-4 for 2 minutes followed by dipping Octet biosensors in wells containing 300 nM of different TrkB mAbs for 4 minutes. Binding of TrkB mAbs to the complex of TrkB and BDNF, hNT-4, or mNT-4 was determined using Scrubber 2.0c analysis software.

[3] = target: T3, mouse TrkB.hFc (mouse); assay: BLI Octet, captured mTrkB.hFc saturated with mNT-4, 300 nM mAb
T3 construct: also called mTrkB.hFc; mTrkB-hFc
Experimental: as §1

[4] = target: T3, mouse TrkB.hFc; assay: BLI Octet, captured mTrkB.hFc saturated with BDNF, 300 nM mAb
Experimental: as §1

[5] = target: T4, rat TrkB extracellular domain expressed with a C-terminal myc-myc-hexahistidine tag (rat, UniProt Q63604 32-429); assay: blocking ELISA, rat TrkB.mmh pre-mixed with mAb, plate-coated BDNF
T4 construct: also called rTrkB.mmH; rTRKB.mmH
Experimental: Experiments were carried out using the following procedure. Human BDNF was coated at a concentration of 0.5 μg/mL (for blocking mouse TrkB.hFc interaction) or 0.3 μg/mL (for blocking rat TrkB.mmh interaction) in PBS on 96-well microtiter plate and incubated overnight at 4° C. […] In a 96-well dilution plate, 850 pM mouse TrkB.hFc or rat TrkB.mmh was mixed with the three-fold serially diluted anti-mouse TrkB antibodies and control antibody. The final antibody concentrations ranged from 1.69 pM to 100 nM. The protein-antibody mix was incubated at room temperature (RT) for 1 hour. The pre-bound mix was then transferred in duplicates to microtiter plates coated with BDNF. A control containing assay buffer alone was included to calculate the baseline of the assay. The ELISA plates were incubated at RT for 1 hour and then washed with plate washing solution. Plate-bound mouse TrkB.hFc was detected with HRP-conjugated goat anti-human Fcγ fragment specific antibody (Jackson Immunoresearch) and rat TrkB.mmh was detected with HRP-conjugated anti-histidine antibody (Qiagen). The plates were incubated with detection antibody for 1 hour at RT and then washed with plate washing solution. The assay plates were developed with TMB colorimetric substrates according to the manufacturer's recommended procedure.
The absorbance at 450 nm for each well was recorded and plotted as a function of the concentration of antibody. Data was analyzed in GraphPad Prism software using a four-parameter logistic equation over an 11-point dose response curve and IC₅₀ values were calculated. […] Percent blockade at maximum concentration of the antibody tested was calculated as an indicator of the ability of the antibodies to block the binding of TrkB to BDNF on the plate relative to the baseline of the assay. Binding signal of 850 pM mouse or rat TrkB in absence of the antibody was defined as 100% binding or 0% blocking. The baseline signal of assay buffer alone was defined as 0% binding or 100% blocking.

T3 sequence (chain, as listed by the source limits assumed): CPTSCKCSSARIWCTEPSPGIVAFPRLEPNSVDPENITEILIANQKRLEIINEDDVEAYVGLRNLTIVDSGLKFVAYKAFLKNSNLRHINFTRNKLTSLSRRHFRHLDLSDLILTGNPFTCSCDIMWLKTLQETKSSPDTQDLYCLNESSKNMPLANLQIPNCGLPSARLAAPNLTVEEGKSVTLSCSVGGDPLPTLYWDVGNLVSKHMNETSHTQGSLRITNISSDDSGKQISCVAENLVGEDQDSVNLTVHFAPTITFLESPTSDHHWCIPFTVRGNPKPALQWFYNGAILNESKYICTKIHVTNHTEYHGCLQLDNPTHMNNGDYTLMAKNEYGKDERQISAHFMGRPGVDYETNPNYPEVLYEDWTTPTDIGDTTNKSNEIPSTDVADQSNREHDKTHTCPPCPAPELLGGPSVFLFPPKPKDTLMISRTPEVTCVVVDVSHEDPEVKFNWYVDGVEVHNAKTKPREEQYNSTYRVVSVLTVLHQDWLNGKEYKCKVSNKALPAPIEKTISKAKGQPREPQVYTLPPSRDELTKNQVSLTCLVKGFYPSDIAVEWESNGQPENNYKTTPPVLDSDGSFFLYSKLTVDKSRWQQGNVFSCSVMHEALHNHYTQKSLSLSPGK
T1 sequence (chain, as listed by the source limits assumed): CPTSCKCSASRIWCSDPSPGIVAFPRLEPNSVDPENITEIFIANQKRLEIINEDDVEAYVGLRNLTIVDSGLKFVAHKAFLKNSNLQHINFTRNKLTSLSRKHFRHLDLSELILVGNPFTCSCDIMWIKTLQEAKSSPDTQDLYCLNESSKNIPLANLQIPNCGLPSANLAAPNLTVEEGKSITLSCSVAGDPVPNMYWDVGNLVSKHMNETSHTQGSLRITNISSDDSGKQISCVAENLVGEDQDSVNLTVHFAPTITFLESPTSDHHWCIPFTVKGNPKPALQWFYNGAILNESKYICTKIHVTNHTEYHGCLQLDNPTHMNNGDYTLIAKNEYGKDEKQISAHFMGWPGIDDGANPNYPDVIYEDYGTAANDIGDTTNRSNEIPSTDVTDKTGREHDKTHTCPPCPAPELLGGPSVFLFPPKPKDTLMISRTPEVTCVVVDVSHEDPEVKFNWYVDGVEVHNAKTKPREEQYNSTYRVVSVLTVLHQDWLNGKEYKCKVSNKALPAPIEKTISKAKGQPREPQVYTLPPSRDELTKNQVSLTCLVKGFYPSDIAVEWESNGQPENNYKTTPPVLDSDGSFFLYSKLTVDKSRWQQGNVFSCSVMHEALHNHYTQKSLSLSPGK
T4 sequence (Q63604 other isoform, or with tags, fused parts or gaps): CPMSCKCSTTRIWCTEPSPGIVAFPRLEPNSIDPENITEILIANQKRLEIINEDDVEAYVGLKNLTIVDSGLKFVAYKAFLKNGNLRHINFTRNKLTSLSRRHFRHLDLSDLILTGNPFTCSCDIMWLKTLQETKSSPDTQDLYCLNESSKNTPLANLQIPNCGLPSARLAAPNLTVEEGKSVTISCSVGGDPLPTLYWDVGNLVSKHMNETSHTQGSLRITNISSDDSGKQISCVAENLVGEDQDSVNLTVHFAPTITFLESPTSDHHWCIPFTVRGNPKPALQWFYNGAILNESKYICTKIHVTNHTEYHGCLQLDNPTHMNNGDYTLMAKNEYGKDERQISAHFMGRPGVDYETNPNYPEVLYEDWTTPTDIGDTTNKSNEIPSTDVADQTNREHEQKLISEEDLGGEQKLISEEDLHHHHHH
T2 sequence (chain, as listed by the source limits assumed): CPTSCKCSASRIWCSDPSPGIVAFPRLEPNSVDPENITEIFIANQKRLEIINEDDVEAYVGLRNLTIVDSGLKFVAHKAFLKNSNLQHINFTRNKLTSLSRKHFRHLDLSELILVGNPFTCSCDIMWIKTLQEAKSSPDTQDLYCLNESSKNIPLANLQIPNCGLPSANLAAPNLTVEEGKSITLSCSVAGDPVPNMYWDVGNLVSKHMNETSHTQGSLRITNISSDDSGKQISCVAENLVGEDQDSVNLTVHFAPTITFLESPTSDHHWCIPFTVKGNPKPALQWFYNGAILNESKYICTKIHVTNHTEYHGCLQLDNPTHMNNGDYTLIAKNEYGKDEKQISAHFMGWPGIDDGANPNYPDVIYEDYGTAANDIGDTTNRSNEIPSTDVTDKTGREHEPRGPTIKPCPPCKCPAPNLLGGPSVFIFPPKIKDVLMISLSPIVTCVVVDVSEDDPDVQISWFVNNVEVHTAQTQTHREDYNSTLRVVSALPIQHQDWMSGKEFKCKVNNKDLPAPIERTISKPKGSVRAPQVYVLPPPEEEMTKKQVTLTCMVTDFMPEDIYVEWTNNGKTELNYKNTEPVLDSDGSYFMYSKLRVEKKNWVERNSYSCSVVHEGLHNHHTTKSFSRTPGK

Binder | % Blockade with 100 nM antibody [1] [%] | IC50 [1] [nM] | antibody Binding (nm) [2] [nm] | antibody Binding (nm) [3] [nm] | antibody Binding (nm) [4] [nm] | % Blockade with 100 nM antibody [5] [%] | IC50 [5] [nM]
B1 | 93 | 0.15 | 0.2 | – | – | – | –
B2 | – | – | – | 0.43 | 0.44 | -38.1 | –
B3 | -56 | – | 0.24 | – | – | – | –
B4 | 6 | – | 0.23 | – | – | – | –
B5 | 97 | 0.17 | – | 0.11 | 0.06 | 83.3 | 1.42
B6 | – | – | – | 0.4 | 0.38 | 80.7 | 3.81
